Results reported in patent publication US20260242478A1 (published 2026).
Where no end group is shown, it is not given here.

B1: Phage-1345 (peptide)
peptide: SCSAGAHYPWPQCF
notes: Clonal phage of the Peptide-92 library, tested as crude supernatant; not shown: fused to the pIII filament of the bacteriophage
B2: Phage-1353 (peptide)
peptide: LCKPGVPYKWPTCL
notes: as for B1
B3: Phage-3901 (peptide)
peptide: YVMMCVPQWMCTAK
notes: tested as crude clonal phage supernatant
B4: Peptide-277 (peptide)
peptide: VVIKCKPEWMCSGF
notes: From the Peptide-180 optimisation phage library
B5: Phage-3899 (peptide)
peptide: FERVCVPAWMCAGF
notes: as for B3
B6: Phage-3903 (peptide)
peptide: LGPMCRPNWMCVGL
notes: as for B3
B7: Peptide-267 (peptide)
peptide: FTNYCVPSWMCTGF
notes: as for B4
B8: Phage-3908 (peptide)
peptide: TERMCSPSWMCDGF
notes: as for B3
B9: Phage-3898 (peptide)
peptide: ESQYCVPRWMCDGF
notes: as for B3
B10: Phage-3909 (peptide)
peptide: VMAVCQPEWMCSGM
notes: as for B3
B11: Phage-3900 (peptide)
peptide: GNDYCVPAWMCAGF
notes: as for B3
B12: Phage-3902 (peptide)
peptide: GHMYCSPLWMCEGF
notes: as for B3
B13: Phage-3907 (peptide)
peptide: SLERCEPPWMCFGF
notes: as for B3
B14: Phage-3910 (peptide)
peptide: VIPLCRPSWMCAAY
notes: as for B3
B15: Phage-3905 (peptide)
peptide: ADVLCRPHWMCAGF
notes: as for B3
B16: Phage-3904 (peptide)
peptide: GYHLCIPEWMCSGL
notes: as for B3
B17: Phage-3906 (peptide)
peptide: SDALCRPHWMCAGF
notes: as for B3

Assays:
[1] = target: T1, Anti-CD28 Fab (SEQ ID NOs: 696, 697); assay: phage binding ELISA; biotinylated anti-CD28 Fab on neutravidin plate, clonal phage supernatant, anti-M13 HRP
T1 construct: In the phage ELISA the Fab was biotinylated and captured on neutravidin coated plates

[2] = target: T1, Anti-CD28 Fab (SEQ ID NOs: 696, 697); assay: phage binding ELISA on captured anti-CD28 Fab; wells pre-incubated with CD28 antigen as competitor
Anti-PSMA Fab [3] = target: T2, Anti-PSMA Fab; assay: clonal phage ELISA; biotinylated anti-PSMA Fab on neutravidin plate; anti-M13 HRP detection; competitor: PSMA antigen pre-added
T2 construct: Biotinylated and captured on neutravidin plates in the phage ELISA; also called 006 PSMA Fab

Anti-PSMA Fab [4] = target: T2, Anti-PSMA Fab; assay: clonal phage ELISA; biotinylated anti-PSMA Fab on neutravidin plate; anti-M13 HRP detection; no PSMA added
PSMA Fab (006 PSMA Fab) [5] = target: T3, PSMA Fab (006 PSMA Fab); assay: phage ELISA; PSMA Fab on plate pre-incubated with PSMA antigen as competitor, anti-M13 HRP detection;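 note: crude clonal phage supernatants added to Fab-coated wells still holding PSMA antigen in blocking buffer, with bound phage as read-out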
T3 construct: also called Anti-PSMA Fab; anti-PSMA Fab

PSMA Fab (006 PSMA Fab) [6] = target: T3, PSMA Fab (006 PSMA Fab); assay: phage ELISA; biotinylated PSMA Fab on neutravidin plate, clonal phage supernatant, anti-M13 HRP detection;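 note: wells preincubated with PSMA antigen in blocking buffer or with blocking buffer only before clonal phage were added for a short incubation, then bound phage detected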
PSMA Fab [7] = target: T4, PSMA Fab; assay: BLI (Octet); PSMA Fab on sensor-loaded biotinylated peptide, 1:1 model
T4 construct: also called 006 PSMA Fab; anti-PSMA Fab

Ab-15 [8] = assay: BLI (Octet): biotinylated peptide on sensor, Ab-15 titrated, 1:1 model
Ab-15 [9] = assay: binding ELISA: biotinylated peptide on neutravidin plate, Ab-15 titrated
Ab-15 [10] = assay: BLI (Octet): sensor loaded with 200 nM biotinylated peptide, 100 nM Ab-15;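 note: binding association and dissociation tracked in real time, fitted to a 1:1 binding model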
Ab-15 [11] = assay: competition ELISA: peptide titrated against 1 nM Ab-15; competitor plate-bound CD28
PSMA Fab [12] = target: T5, PSMA Fab; assay: clonal phage ELISA; biotinylated PSMA Fab on neutravidin plate, blocking buffer alone; anti-M13 HRP detection;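 note: crude clonal phage supernatants added without washing to wells pretreated with blocking buffer with or without PSMA antigen, short incubation, then washed before detecting bound phage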
T5 construct: also called Anti-PSMA Fab; 006 PSMA Fab

PSMA Fab [13] = target: T5, PSMA Fab; assay: clonal phage ELISA; biotinylated PSMA Fab on neutravidin plate, wells first incubated with PSMA antigen as competitor; anti-M13 HRP detection

Row | Binder | Phage binding ELISA signal, Anti-PSMA Fab with PSMA antigen (Anti-PSMA Fab [3]) | Phage binding ELISA signal, Anti-PSMA Fab (Anti-PSMA Fab [4]) | Phage binding ELISA signal, Anti-PSMA Fab in presence of PSMA antigen (PSMA Fab (006 PSMA Fab) [5]) | Phage binding ELISA signal, Anti-PSMA Fab (PSMA Fab (006 PSMA Fab) [6]) | further results
1 | B1 |  |  |  |  | Anti-CD28 Fab (SEQ ID NOs: 696, 697) signal [1]: 1.16; Anti-CD28 Fab signal in the presence of CD28 [2]: 0.06
2 | AGYACVPSWMCEGF [Phage-3626] | 0.105 | 1.55 |  |  | 
3 | B2 |  |  |  |  | Anti-CD28 Fab signal in the presence of CD28 [2]: 0.07
4 | DWVMCKPEWMCAGF [Phage-3625] | 0.0618 | 1.55 |  |  | 
5 | B3 |  |  | 0.069 | 1.06 | 
6 | YMMKCIPEWMCTGL [Phage-3622] | 0.0662 | 1.56 |  |  | 
7 | B4 |  |  |  |  | Off rate t1/2 (PSMA Fab [7]): 1.9 min
8 | RDWCPRDLWVHCFA (cysteine pairing not given here; also: biotinylated, site not given here, CD28 peptide mask) [Peptide-53] |  |  |  |  | Kd (Ab-15 [8]): 20.3 nM; t1/2 (Ab-15 [8]): 6.2 min; EC50 (Ab-15 [9]): 14.6 nM; Octet signal (Ab-15 [10]): 1.22; t1/2 (Ab-15 [10]): 4.9 min; IC50 (Ab-15 [11]): 170 nM
9 | QDWCPRDLWVHCFA (cysteine pairing not given here; also: biotinylated, site not given here, CD28 peptide mask) [Peptide-56] |  |  |  |  | Kd (Ab-15 [8]): 24.6 nM; t1/2 (Ab-15 [8]): 4.2 min; EC50 (Ab-15 [9]): 25.7 nM; Octet signal (Ab-15 [10]): 1.12; t1/2 (Ab-15 [10]): 3.6 min; IC50 (Ab-15 [11]): 330 nM
10 | KDWCPRDLWVHCFA (cysteine pairing not given here; also: biotinylated, site not given here, CD28 peptide mask) [Peptide-62] |  |  |  |  | Kd (Ab-15 [8]): 26.1 nM; t1/2 (Ab-15 [8]): 4.5 min; EC50 (Ab-15 [9]): 19.7 nM; Octet signal (Ab-15 [10]): 1.13; t1/2 (Ab-15 [10]): 4 min; IC50 (Ab-15 [11]): 190 nM
11 | EDWCPRDLWVHCFA (cysteine pairing not given here; also: biotinylated, site not given here, CD28 peptide mask) [Peptide-57] |  |  |  |  | Kd (Ab-15 [8]): 23.2 nM; t1/2 (Ab-15 [8]): 3.1 min; EC50 (Ab-15 [9]): 32.8 nM; Octet signal (Ab-15 [10]): 1.02; t1/2 (Ab-15 [10]): 3 min; IC50 (Ab-15 [11]): 300 nM
12 | TDWCPRDLWVHCFA (cysteine pairing not given here; also: biotinylated, site not given here, CD28 peptide mask) [Peptide-66] |  |  |  |  | Kd (Ab-15 [8]): 25.5 nM; t1/2 (Ab-15 [8]): 4.7 min; EC50 (Ab-15 [9]): 24 nM; Octet signal (Ab-15 [10]): 1.34; t1/2 (Ab-15 [10]): 4.2 min; IC50 (Ab-15 [11]): 590 nM
13 | B5 |  |  | 0.0668 | 1.07 | 
14 | B6 |  |  | 0.0797 | 1.06 | 
15 | B7 |  |  |  |  | Off rate t1/2 (PSMA Fab [7]): 1.9 min
16 | ADHMCVPQWMCSGF [Phage-3619] | 0.103 | 1.57 |  |  | 
17 | B8 |  |  | 0.0693 | 1.05 | 
18 | B9 |  |  | 0.0633 | 1.08 | 
19 | VVAVCKPLWMCEAF [Phage-3618] | 0.062 | 1.57 |  |  | 
20 | DDRVCRPDWMCNGF [Phage-3624] | 0.0665 | 1.56 |  |  | 

Row | Binder | Phage binding ELISA signal, Anti-PSMA Fab with PSMA antigen (Anti-PSMA Fab [3]) | Phage binding ELISA signal, Anti-PSMA Fab (Anti-PSMA Fab [4]) | Phage binding ELISA signal, Anti-PSMA Fab in presence of PSMA antigen (PSMA Fab (006 PSMA Fab) [5]) | Phage binding ELISA signal, Anti-PSMA Fab (PSMA Fab (006 PSMA Fab) [6]) | further results
21 | B10 |  |  | 0.0731 | 1.05 | 
22 | DLMMCVPAWMCEGF [Phage-3629] | 0.0929 | 1.55 |  |  | 
23 | B11 |  |  | 0.0974 | 1.06 | 
24 | B12 |  |  | 0.131 | 1.06 | 
25 | DERMCVPEWMCMGM [Phage-3620] | 0.0714 | 1.57 |  |  | 
26 | ELHLCIPSWMCTGL [Phage-3630] | 0.104 | 1.54 |  |  | 
27 | HDYACVPKWMCEGL [Phage-3621] | 0.0818 | 1.57 |  |  | 
28 | LERACKPMWMCEGF [Phage-3474] |  |  |  |  | Phage binding ELISA signal, Anti-PSMA Fab (PSMA Fab [12]): 1.73; phage binding ELISA signal, Anti-PSMA Fab in the presence of PSMA (PSMA Fab [13]): 0.0863
29 | B13 |  |  | 0.0697 | 1.06 | 
30 | EDRICEPDWMCAGF [Phage-3475] |  |  |  |  | Phage binding ELISA signal, Anti-PSMA Fab (PSMA Fab [12]): 1.73; phage binding ELISA signal, Anti-PSMA Fab in the presence of PSMA (PSMA Fab [13]): 0.105
31 | B14 |  |  | 0.116 | 1.04 | 
32 | LAVKCEPAWMCTGF [Phage-3627] | 0.0802 | 1.55 |  |  | 
33 | B15 |  |  | 0.0581 | 1.06 | 
34 | VHPMCTPLWMCVGF [Phage-3628] | 0.0993 | 1.55 |  |  | 
35 | B16 |  |  | 0.0923 | 1.06 | 
36 | EGTWCRPAWMCDGF [Phage-3473] |  |  |  |  | Phage binding ELISA signal, Anti-PSMA Fab (PSMA Fab [12]): 1.73; phage binding ELISA signal, Anti-PSMA Fab in the presence of PSMA (PSMA Fab [13]): 0.0819
37 | QEVWCRPIWMCEGF [Phage-3472] |  |  |  |  | Phage binding ELISA signal, Anti-PSMA Fab (PSMA Fab [12]): 1.73; phage binding ELISA signal, Anti-PSMA Fab in the presence of PSMA (PSMA Fab [13]): 0.109
38 | B17 |  |  | 0.061 | 1.06 | 
39 | IVKFCIPQWMCDGF [Phage-3623] | 0.147 | 1.56 |  |  | 
